Measurements as given in publication PMC7954794, “Protein context shapes the specificity of SH3 domain-mediated interactions in vivo” (Nature Communications, 2021).

B1: YKR048C_2 (protein, UniProt P25293 1-417, looked up)
Nucleosome assembly protein: MSDPIRTKPKSSMQIDNAPTPHNTPASVLNPSYLKNGNPVRAQAQEQDDKIGTINEEDILANQPLLLQSIQDRLGSLVGQDSGYVGGLPKNVKEKLLSLKTLQSELFEVEKEFQVEMFELENKFLQKYKPIWEQRSRIISGQEQPKPEQIAKGQEIVESLNETELLVDEEEKAQNDSEEEQVKGIPSFWLTALENLPIVCDTITDRDAEVLEYLQDIGLEYLTDGRPGFKLLFRFDSSANPFFTNDILCKTYFYQKELGYSGDFIYDHAEGCEISWKDNAHNVTVDLEMRKQRNKTTKQVRTIEKITPIESFFNFFDPPKIQNEDQDEELEEDLEERLALDYSIGEQLKDKLIPRAVDWFTGAALEFEFEEDEEEADEDEDEEEDDDHGLEDDDGESAEEQDDFAGRPEQAPECKQS
B2: YGR281W_2 (protein, UniProt P53049 1-1477, looked up)
Oligomycin resistance …: MTITVGDAVSETELENKSQNVVLSPKASASSDISTDVDKDTSSSWDDKSLLPTGEYIVDRNKPQTYLNSDDIEKVTESDIFPQKRLFSFLHSKKIPEVPQTDDERKIYPLFHTNIISNMFFWWVLPILRVGYKRTIQPNDLFKMDPRMSIETLYDDFEKNMIYYFEKTRKKYRKRHPEATEEEVMENAKLPKHTVLRALLFTFKKQYFMSIVFAILANCTSGFNPMITKRLIEFVEEKAIFHSMHVNKGIGYAIGACLMMFVNGLTFNHFFHTSQLTGVQAKSILTKAAMKKMFNASNYARHCFPNGKVTSFVTTDLARIEFALSFQPFLAGFPAILAICIVLLIVNLGPIALVGIGIFFGGFFISLFAFKLILGFRIAANIFTDARVTMMREVLNNIKMIKYYTWEDAYEKNIQDIRTKEISKVRKMQLSRNFLIAMAMSLPSIASLVTFLAMYKVNKGGRQPGNIFASLSLFQVLSLQMFFLPIAIGTGIDMIIGLGRLQSLLEAPEDDPNQMIEMKPSPGFDPKLALKMTHCSFEWEDYELNDAIEEAKGEAKDEGKKNKKKRKDTWGKPSASTNKAKRLDNMLKDRDGPEDLEKTSFRGFKDLNFDIKKGEFIMITGPIGTGKSSLLNAMAGSMRKTDGKVEVNGDLLMCGYPWIQNASVRDNIIFGSPFNKEKYDEVVRVCSLKADLDILPAGDMTEIGERGITLSGGQKARINLARSVYKKKDIYLFDDVLSAVDSRVGKHIMDECLTGMLANKTRILATHQLSLIERASRVIVLGTDGQVDIGTVDELKARNQTLINLLQFSSQNSEKEDEEQEAVVAGELGQLKYESEVKELTELKKKATEMSQTANSGKIVADGHTSSKEERAVNSISLKIYREYIKAAVGKWGFIALPLYAILVVGTTFCSLFSSVWLSYWTENKFKNRPPSFYMGLYSFFVFAAFIFMNGQFTILCAMGIMASKWLNLRAVKRILHTPMSYIDTTPLGRILNRFTKDTDSLDNELTESLRLMTSQFANIVGVCVMCIVYLPWFAIAIPFLLVIFVLIADHYQSSGREIKRLEAVQRSFVYNNLNEVLGGMDTIKAYRSQERFLAKSDFLINKMNEAGYLVVVLQRWVGIFLDMVAIAFALIITLLCVTRAFPISAASVGVLLTYVLQLPGLLNTILRAMTQTENDMNSAERLVTYATELPLEASYRKPEMTPPESWPSMGEIIFENVDFAYRPGLPIVLKNLNLNIKSGEKIGICGRTGAGKSTIMSALYRLNELTAGKILIDNVDISQLGLFDLRRKLAIIPQDPVLFRGTIRKNLDPFNERTDDELWDALVRGGAIAKDDLPEVKLQKPDENGTHGKMHKFHLDQAVEEEGSNFSLGERQLLALTRALVRQSKILILDEATSSVDYETDGKIQTRIVEEFGDCTILCIAHRLKTIVNYDRILVLEKGEVAEFDTPWTLFSQEDSIFRSMCSRSGIVENDFENRS
B3: YCR002C_2 (protein, UniProt P25342 1-322, looked up)
Cell division control protein …: MDPLSSVQPASYVGFDTITNQIEHRLLKKGFQFNIMVVGQSGLGKSTLINTLFASHLIDSATGDDISALPVTKTTEMKISTHTLVEDRVRLNINVIDTPGFGDFIDNSKAWEPIVKYIKEQHSQYLRKELTAQRERFITDTRVHAILYFLQPNGKELSRLDVEALKRLTEIANVIPVIGKSDTLTLDERTEFRELIQNEFEKYNFKIYPYDSEELTDEELELNRSVRSIIPFAVVGSENEIEINGETFRGRKTRWSAINVEDINQCDFVYLREFLIRTHLQDLIETTSYIHYEGFRARQLIALKENANSRSSAHMSSNAIQR
B4: YAR042W_2 (protein, UniProt P35845 1-1188, looked up)
Oxysterol-binding protein …: MEQPDLSSVAISKPLLKLKLLDALRQGSFPNLQDLLKKQFQPLDDPNVQQVLHLMLHYAVQVAPMAVIKEIVHHWVSTTNTTFLNIHLDLNERDSNGNTPLHIAAYQSRGDIVAFLLDQPTINDCVLNNSHLQAIEMCKNLNIAQMMQVKRSTYVAETAQEFRTAFNNRDFGHLESILSSPRNAELLDINGMDPETGDTVLHEFVKKRDVIMCRWLLEHGADPFKRDRKGKLPIELVRKVNENDTATNTKIAIDIELKKLLERATREQSVIDVTNNNLHEAPTYKGYLKKWTNFAQGYKLRWFILSSDGKLSYYIDQADTKNACRGSLNMSSCSLHLDSSEKLKFEIIGGNNGVIRWHLKGNHPIETNRWVWAIQGAIRYAKDREILLHNGPYSPSLALSHGLSSKVSNKENLHATSKRLTKSPHLSKSTLTQNDHDNDDDSTNNNNNKSNNDYDDNNNNNNNDDDDYDDDDESRPLIEPLPLISSRSQSLSEITPGPHSRKSTVSSTRAADIPSDDEGYSEDDSDDDGNSSYTMENGGENDGDEDLNAIYGPYIQKLHMLQRSISIELASLNELLQDKQQHDEYWNTVNTSIETVSEFFDKLNRLTSQREKRMIAQMTKQRDVNNVWIQSVKDLEMELVDKDEKLVALDKERKNLKKMLQKKLNNQPQVETEANEESDDANSMIKGSQESTNTLEEIVKFIEATKESDEDSDADEFFDAEEAASDKKANDSEDLTTNKETPANAKPQEEAPEDESLIVISSPQVEKKNQLLKEGSFVGYEDPVRTKLALDEDNRPKIGLWSVLKSMVGQDLTKLTLPVSFNEPTSLLQRVSEDIEYSHILDQAATFEDSSLRMLYVAAFTASMYASTTNRVSKPFNPLLGETFEYARTDGQYRFFTEQVSHHPPISATWTESPKWDFYGECNVDSSFNGRTFAVQHLGLWYITIRPDHNISVPEETYSWKKPNNTVIGILMGKPQVDNSGDVKVTNHTTGDYCMLHYKAHGWTSAGAYEVRGEVFNKDDKKLWVLGGHWNDSIYGKKVTARGGELTLDRIKTANSATGGPKLDGSKFLIWKANERPSVPFNLTSFALTLNALPPHLIPYLAPTDSRLRPDQRAMENGEYDKAAAEKHRVEVKQRAAKKEREQKGEEYRPKWFVQEEHPVTKSLYWKFNGEYWNKRKNHDFKDCADIF
B5: YBL039C_2 (protein, UniProt P28274 1-579, looked up)
CTP synthase 1: MKYVVVSGGVISGIGKGVLASSTGMLMKTLGLKVTSIKIDPYMNIDAGTMSPLEHGECFVLDDGGETDLDLGNYERYLGVTLTKDHNITTGKIYSHVIAKERKGDYLGKTVQIVPHLTNAIQDWIERVAKIPVDDTGMEPDVCIIELGGTVGDIESAPFVEALRQFQFKVGKENFALIHVSLVPVIHGEQKTKPTQAAIKGLRSLGLVPDMIACRCSETLDKPTIDKIAMFCHVGPEQVVNVHDVNSTYHVPLLLLEQKMIDYLHARLKLDEISLTEEEKQRGLELLSKWKATTGNFDESMETVKIALVGKYTNLKDSYLSVIKALEHSSMKCRRKLDIKWVEATDLEPEAQESNKTKFHEAWNMVSTADGILIPGGFGVRGTEGMVLAARWARENHIPFLGVCLGLQIATIEFTRSVLGRKDSHSAEFYPDIDEKNHVVVFMPEIDKETMGGSMRLGLRPTFFQNETEWSQIKKLYGDVSEVHERHRHRYEINPKMVDELENNGLIFVGKDDTGKRCEILELKNHPYYIATQYHPEYTSKVLDPSKPFLGLVAASAGILQDVIEGKYDLEAGENKFNF
B6: YKL051W_2 (protein, UniProt P35735 1-353, looked up)
Protein SFK1: MIQFKSPGNWLFIVPWIAFIPWYGMLIAMLICWASQGHPIYWFMHSEQFPVYISDIGATNLRPLFISCAGWQGLGYVITVALEFFQRSGYLPFQLKKKDPSISDSTSYAEKLHSGKYLMPPYYTKDERNLIFAAFVLGSIGELALLFSSIFSTALYHRVHIAMVSVFVVFMFLSTCCLIAEYFLMGRHYASVHPLASPHFNPQSSEKSFNQDYNTVDELPWYKWKGHVWNKFTISATLKVIWLTLAVVWAICFGAINDRSKSACFEWLLAFWFGIIFMILSADFYLGGRYRQSRYFNHVESFSGYYKYDKALGLYHSEDVLPSDDNAGVIATETASSNIYNNSSSNESIQVVV
B7: YCR030C_2 (protein, UniProt P25623 1-870, looked up)
Suppressor of yeast profilin …: MTEQRTKYADSILTTKSPYEATETIRIRLSQVKLLNKDFYLLFKELANLKRNYAQQLRKIIAENEDITKILNAQMIESNVLTPQEMSAFRFNSLGELRNVWDTVIEELKSDLKSSTEYYNTLDQQVVRELKESVENNTSWRESKDLHSKLSKNAASIEHYSKNNENSSHLEEARRQWDQQSPYLFELFETIDYNRLDTLKNCMLRFQTSFSDYLLNTTKECETVMTKFLAFEPQSEIDRFAKDASQYNFQLSSSSKEVVPNNASPASATGARPVSVSNGAANTEREKKSPQKDKRKSAFGNIGHRLASASSSLTHNDLMNNEFSDSTNNSSLKSKKSSHTLRSKVGSIFGRNKTKNKRQQQSSSNSHIQASITETPNNSSTRVSSTATSSIYQKQRRPTYSSSKSNNWTPGEASDTPPLPPHATPKNVDAPVTADTPPAQTFTPSEVPPSTPQQSSPPTAKEPDSSNLPKTVPISISQPPLQPQSKTKPLPVEPASPSISLPTATVDNQPSGQVDSRPLHIRAPALPPSRKQNFIHNRDSQLYDSLPNHGSGATPTSSSLSSIPQERPVSTLSSQITGELRELNPQATGSSTSLVGQSLFQHSSLDTSQFGLNASIAEVLNASFKDGMLQNSQLIGEIALNYLPNSVMNSPLPIGINLRINNGAKFEKVILNQAFIERVAPEEFKVNPSFIDSRTLGAIKYSIKEPIAPIVIHPVWRFESHQASVVLTVKMSPSLPDEISQIVIEDLVVFVNIDGANATSALSKPQGSFSKEKKRITWRFKEPVVLTRNGEGQRLIARFITDGLAHESAKGVITKFTISETDNVALPHSGAGSGITLTCQELDENNPFGGEWLDVNTKRTLTTGNYHGLA

Tested on: PPIs identified as affected by the SH3 domain deletions
Test: Liquid DHFR-PCA low-throughput validation of PPIs affected by SH3 deletion (Fig. S1D-E)
Format: cell-based, Saccharomyces cerevisiae
Conditions: label = prey, liquid DHFR-PCA, prey _1 = lost, _2 = gained in screen
Procedure, shortened: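 Yeast diploids from DHFR-PCA mating grown 48 h in synthetic complete MSG medium pH 6.0 with NAT and HPH, normalized to 1 OD and diluted to 0.1 OD in liquid PCA selection medium. Growth followed by OD every 15 min for 72 h at 30 °C.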

Molecule	Ratio (Deletedscore / WTscore) (bait LSB3)	Ratio (Deletedscore / WTscore) (bait BZZ1-2)	other results
B1	1.174		Ratio (Deletedscore / WTscore) (bait BOI2): 1.065
B2	1.455	1.357	Ratio (Deletedscore / WTscore) (bait BOI1): 0.9762
B3	1.096	1.169	Ratio (Deletedscore / WTscore) (bait HOF1): 0.2463
B4			Ratio (Deletedscore / WTscore) (bait ABP1): 1.203
B5	1.147	1.633	Ratio (Deletedscore / WTscore) (bait HSE1): 1.248
B6	1.525	1.125	Ratio (Deletedscore / WTscore) (bait BOI1): 0.8707
B7		1.115	
